This experiment deals with T1, Replication protein A (RPA), consisting of Rfa1, Rfa2 and Rfa3 (budding yeast, UniProt P22336 1-621; P26754 1-273; P26755 1-122).
T1 construct: Rfa1, subunit of budding yeast RPA; Rfa2, subunit of budding yeast RPA; Rfa3, subunit of budding yeast RPA; also called budding yeast RPA protein; source: purified as described [83]; copies: + +
Description: pull-down; streptavidin beads coated with biotinylated oligonucleotide bio-oligo(dN)80 (5 pmol), incubated with RPA (1 pmol) for 30 min, then with Mec1-Ddc2, Mec1-Ddc2-S4, MBP, MBP-Ddc2 or MBP-Ddc2-S4 (0.5 pmol) for 30 min; buffer B (20 mM Tris-HCl pH 7.5, 100 mM NaCl, 0.01% NP-40, 10% glycerol, 100 μg/ml BSA), 30°C; immunoblot of captured proteins. As to conditions: both partners purified. On the technique in general: Immunoblotting shows a protein as a band on a membrane.

The values that follow come from publication PMC6692047, “Ddc2^ATRIP promotes Mec1^ATR activation at RPA-ssDNA tracts” (PLoS Genetics, 2019).

Changes are numbered by the printed parent chain.

T1 sequence (P22336 whole entry, chain 1 of 3): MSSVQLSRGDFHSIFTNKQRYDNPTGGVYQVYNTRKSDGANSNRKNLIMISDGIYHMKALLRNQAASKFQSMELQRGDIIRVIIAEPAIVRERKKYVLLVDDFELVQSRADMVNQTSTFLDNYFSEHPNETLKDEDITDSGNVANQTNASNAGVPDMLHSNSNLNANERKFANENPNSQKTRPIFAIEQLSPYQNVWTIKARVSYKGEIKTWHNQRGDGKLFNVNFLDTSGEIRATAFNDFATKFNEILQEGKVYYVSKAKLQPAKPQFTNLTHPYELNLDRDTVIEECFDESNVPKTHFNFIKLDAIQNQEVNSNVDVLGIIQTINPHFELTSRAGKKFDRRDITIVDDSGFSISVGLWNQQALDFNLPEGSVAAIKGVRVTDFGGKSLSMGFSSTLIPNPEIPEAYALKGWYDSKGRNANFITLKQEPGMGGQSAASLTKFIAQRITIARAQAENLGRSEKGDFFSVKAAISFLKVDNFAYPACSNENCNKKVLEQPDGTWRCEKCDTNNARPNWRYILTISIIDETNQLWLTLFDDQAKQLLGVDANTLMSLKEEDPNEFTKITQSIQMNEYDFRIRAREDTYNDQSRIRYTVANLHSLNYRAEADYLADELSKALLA
T1 sequence (P26754 whole entry, chain 2 of 3): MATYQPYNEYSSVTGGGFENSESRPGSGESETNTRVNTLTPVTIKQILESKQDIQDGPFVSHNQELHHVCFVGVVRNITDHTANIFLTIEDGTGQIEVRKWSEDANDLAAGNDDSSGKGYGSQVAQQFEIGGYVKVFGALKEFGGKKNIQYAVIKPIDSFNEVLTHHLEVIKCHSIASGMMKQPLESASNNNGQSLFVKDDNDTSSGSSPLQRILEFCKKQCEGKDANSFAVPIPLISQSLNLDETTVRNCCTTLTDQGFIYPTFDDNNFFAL
T1 sequence (P26755 whole entry, chain 3 of 3): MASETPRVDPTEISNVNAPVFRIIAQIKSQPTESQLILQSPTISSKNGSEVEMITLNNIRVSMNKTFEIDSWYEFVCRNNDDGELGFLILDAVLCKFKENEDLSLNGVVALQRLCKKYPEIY

B1: MBP-Ddc2 (natural protein, budding yeast, UniProt Q04377 1-747, looked up)
chain: MRRETVGEFSSDDDDDILLELGTRPPRFTQIPPSSAALQTQIPTTLEVTTTTLNNKQSKNDNQLVNQLNKAQGEASMLRDKINFLNIEREKEKNIQAVKVNELQVKHLQELAKLKQELQKLEDEKKFLQMEARGKSKREVITNVKPPSTTLSTNTNTITPDSSSVAIEAKPQSPQSKKRKISDNLLKKNMVPLNPNRIIPDETSLFLESILLHQIIGADLSTIEILNRLKLDYITEFKFKNFVIAKGAPIGKSIVSLLLRCKKTLTLDRFIDTLLEDIAVLIKEISVHPNESKLAVPFLVALMYQIVQFRPSATHNLALKDCFLFICDLIRIYHHVLKVPIHESNMNLHVEPQIFQYELIDYLIISYSFDLLEGILRVLQSHPKQTYMEFFDENILKSFEFVYKLALTISYKPMVNVIFSAVEVVNIITSIILNMDNSSDLKSLISGSWWRDCITRLYALLEKEIKSGDVYNENVDTTTLHMSKYHDFFGLIRNIGDNELGGLISKLIYTDRLQSVPRVISKEDIGMDSDKFTAPIIGYKMEKWLLKLKDEVLNIFENLLMIYGDDATIVNGEMLIHSSKFLSREQALMIERYVGQDSPNLDLRCHLIEHTLTIIYRLWKDHFKQLREEQIKQVESQLIMSLWRFLVCQTETVTANEREMRDHRHLVDSLHDLTIKDQASYYEDAFEDLPEYIEEELKMQLNKRTGRIMQVKYDEKFQEMARTILESKSFDLTTLEEADSLYISMGL
notes: Ddc2 (ATRIP homolog), budding yeast; also called MBP-fused Ddc2; pMAL-Ddc2; source: E. coli Rosetta, purified (amylose resin)
Regarding B1, the binding result is recorded as “binds”.

B2: MBP-Ddc2-S4 (natural protein, budding yeast, UniProt Q04377 1-747, looked up)
chain: B1 chain with K263E, H382Y
notes: Ddc2 (ATRIP homolog), budding yeast, with the two ddc2-S4 substitutions; also called MBP-fused Ddc2-S4; pMAL-Ddc2-S4; source: E. coli Rosetta, purified (amylose resin)
With B2, the binding result was “binds”.
